From patent publication US20160279221A1

Target: AMA1 on P. falciparum 3D7 strain parasites (Plasmodium falciparum)
Assay: cell-based or functional assay

How did the IC30 concentration (30% inhibition against the 3D7 target parasites, GIA) turn out when rat mAb 4G2dc1 (antibody) was run?
Its IC30 concentration (30% inhibition against the 3D7 target parasites, GIA) is 1800 µg/mL.

What about the Inhibition (GIA at 1 mg/ml against the 3D7 target strain) of the same substance?
The Inhibition (GIA at 1 mg/ml against the 3D7 target strain) was 22%.
